Reference: publication PMC2979009

Biological target: subtilisin pS169 (A1C mutant of S189), labeled with Alexafluor 350 maleimide (Bacillus amyloliquefaciens)

In the case of “P1 (residues 1−77 of pG12), the prodomain product left after cleavage (domain or fragment)”, the Kd is reported as < 1 nM.
